± gives the standard error. Variants at the floor of the assay were thinned out. Where only a bound is given, the exact number is not on record here.

From the supplement of paper PMC7125110 come the findings set out here.

B1: glmS ribozyme (parent)
chain: AUAAAAGCGCCAGAACUACAGAAAUGUAGUUGACGAGGAGGAGGUUUAUCGAAUUUUCGGCGGAUGCCUCCAAA

The first data set covers variants of B1. The data set can be described thus: self-cleavage kobs at 2500 uM GlcN6P; higher = faster cleavage; RNA array. The settings on record: with glucosamine-6-phosphate. In short, it runs like this: (§1)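 Ribozyme variants carrying barcodes were transcribed in situ on sequenced MiSeq chips by E. coli RNA polymerase and tracked at 37 °C with a hybridised Cy3 probe. They were exposed to 40 μM to 10 mM glucosamine-6-phosphate in HEPES/KCl/Mg(OAc)2 buffer. kobs came from exponential decay fits of normalised per-tile medians, and kcat and KM from weighted Michaelis–Menten fits.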
For the variant G37A U49G A52U G59A, the “self-cleavage kobs at 2500 uM GlcN6P” value was under 1e-05 s⁻¹.

On to A14U C34A A48G C68G C71A, for which the “self-cleavage kobs at 2500 uM GlcN6P” value is under 1e-05 s⁻¹.

Consider C8U C11U A39C G51A G62C, for which the “self-cleavage kobs at 2500 uM GlcN6P” value was under 1e-05 s⁻¹.

With A12U A15U U47C, the “self-cleavage kobs at 2500 uM GlcN6P” value worked out at 0.000776 ± 0.00023 s⁻¹.

As for G13U A33G U45C G63A, the “self-cleavage kobs at 2500 uM GlcN6P” value was under 1e-05 s⁻¹.

As for G9C C11A G63C, the “self-cleavage kobs at 2500 uM GlcN6P” value is under 1e-05 s⁻¹.

Consider G29C C34A U47A U56C, for which the “self-cleavage kobs at 2500 uM GlcN6P” value is under 1e-05 s⁻¹.

Turning to C34A G35C A39G G44U C67A C71G, the “self-cleavage kobs at 2500 uM GlcN6P” value was under 1e-05 s⁻¹.

Regarding C58U C61G G66U, the “self-cleavage kobs at 2500 uM GlcN6P” value turned out to be 6.41e-05 ± 2.3e-05 s⁻¹.

On to G29U C34U U55G C67U, for which the “self-cleavage kobs at 2500 uM GlcN6P” value was under 1e-05 s⁻¹.

C8U C34U G41U: the “self-cleavage kobs at 2500 uM GlcN6P” value is under 1e-05 s⁻¹.

Consider A33C G51A U54C, for which the “self-cleavage kobs at 2500 uM GlcN6P” value is under 1e-05 s⁻¹.

On to A6G G40A G41C, for which the “self-cleavage kobs at 2500 uM GlcN6P” value is under 1e-05 s⁻¹.

For the variant G7A A39C U54G U57A C58U G66U, the “self-cleavage kobs at 2500 uM GlcN6P” value is under 1e-05 s⁻¹.

As to A15C G66U C67G, the “self-cleavage kobs at 2500 uM GlcN6P” value worked out at 4.27e-05 ± 1.7e-05 s⁻¹.

As to G9C A15C G44A G60U C61G, the “self-cleavage kobs at 2500 uM GlcN6P” value is under 1e-05 s⁻¹.

For the variant G32C U47A A64G C68A, the “self-cleavage kobs at 2500 uM GlcN6P” value is under 1e-05 s⁻¹.

In the case of A15U G29C C50U, the “self-cleavage kobs at 2500 uM GlcN6P” value is under 1e-05 s⁻¹.

On to G9U A14U A42C, for which the “self-cleavage kobs at 2500 uM GlcN6P” value was under 1e-05 s⁻¹.

As for A12C G29A U45G U46C, the “self-cleavage kobs at 2500 uM GlcN6P” value was 0.000151 ± 5.3e-05 s⁻¹.

Consider U30A U47C, for which the “self-cleavage kobs at 2500 uM GlcN6P” value turned out to be 0.000476 ± 9.7e-05 s⁻¹.

With A15U C16G U30A A33G G59A, the “self-cleavage kobs at 2500 uM GlcN6P” value was under 1e-05 s⁻¹.

Regarding G29U G32C U56A, the “self-cleavage kobs at 2500 uM GlcN6P” value was 7.28e-05 ± 1.4e-05 s⁻¹.

Regarding C8G A33U U56G G59U, the “self-cleavage kobs at 2500 uM GlcN6P” value was under 1e-05 s⁻¹.

In the case of A12G G51U U56G, the “self-cleavage kobs at 2500 uM GlcN6P” value is under 1e-05 s⁻¹.

Regarding A6C A39C G60U, the “self-cleavage kobs at 2500 uM GlcN6P” value is under 1e-05 s⁻¹.

As to U30G G41C C58U, the “self-cleavage kobs at 2500 uM GlcN6P” value was under 1e-05 s⁻¹.

For G32C A33C U49G, the “self-cleavage kobs at 2500 uM GlcN6P” value is under 1e-05 s⁻¹.

Turning to C10U G51U G60U, the “self-cleavage kobs at 2500 uM GlcN6P” value is under 1e-05 s⁻¹.

Turning to G13A U30A U45A U57G G60U U65C C68G, the “self-cleavage kobs at 2500 uM GlcN6P” value was under 1e-05 s⁻¹.

Take C34A C68G: the “self-cleavage kobs at 2500 uM GlcN6P” value is under 1e-05 s⁻¹.

For the variant G13U G38U C68U, the “self-cleavage kobs at 2500 uM GlcN6P” value was under 1e-05 s⁻¹.

On to G35A G38C C58U, for which the “self-cleavage kobs at 2500 uM GlcN6P” value was under 1e-05 s⁻¹.

Turning to G9A C34A U49G, the “self-cleavage kobs at 2500 uM GlcN6P” value was under 1e-05 s⁻¹.

Turning to G13C G32U G38U U47G A48U, the “self-cleavage kobs at 2500 uM GlcN6P” value was under 1e-05 s⁻¹.

C34U G40A G41C A48C A52G: the “self-cleavage kobs at 2500 uM GlcN6P” value was under 1e-05 s⁻¹.

Take G35U A36U G43A C50G U69G: the “self-cleavage kobs at 2500 uM GlcN6P” value is under 1e-05 s⁻¹.

On to A33U G51U C67U, for which the “self-cleavage kobs at 2500 uM GlcN6P” value was under 1e-05 s⁻¹.

Turning to G7A A39C G59C C70U, the “self-cleavage kobs at 2500 uM GlcN6P” value was under 1e-05 s⁻¹.

As to A15C A36C G59A U65A, the “self-cleavage kobs at 2500 uM GlcN6P” value is under 1e-05 s⁻¹.

For G29C C61G G62A C70G, the “self-cleavage kobs at 2500 uM GlcN6P” value was determined as 0.000307 ± 0.00012 s⁻¹.

Turning to C10G A39G G66A C67U C71G, the “self-cleavage kobs at 2500 uM GlcN6P” value came to 7e-05 ± 3.1e-05 s⁻¹.

With C11G U47A C50G C70G, the “self-cleavage kobs at 2500 uM GlcN6P” value came to 0.000352 ± 8.9e-05 s⁻¹.

Consider C16U C34G C50G, for which the “self-cleavage kobs at 2500 uM GlcN6P” value turned out to be 0.00012 ± 5e-05 s⁻¹.

For A14C A39C C71U, the “self-cleavage kobs at 2500 uM GlcN6P” value stood at 4.93e-05 ± 1.7e-05 s⁻¹.

With A12G U56G G66A, the “self-cleavage kobs at 2500 uM GlcN6P” value is 0.000134 ± 2.5e-05 s⁻¹.

As for G29A U31A G38C, the “self-cleavage kobs at 2500 uM GlcN6P” value was under 1e-05 s⁻¹.

Take A33U G37C C70G: the “self-cleavage kobs at 2500 uM GlcN6P” value is under 1e-05 s⁻¹.

In the case of G35U G66U C70U, the “self-cleavage kobs at 2500 uM GlcN6P” value is under 1e-05 s⁻¹.

C8G G9U C16A A53C: the “self-cleavage kobs at 2500 uM GlcN6P” value is under 1e-05 s⁻¹.

Take A15U A33C A39G C71G: the “self-cleavage kobs at 2500 uM GlcN6P” value was under 1e-05 s⁻¹.

Consider A12G A15U G35A, for which the “self-cleavage kobs at 2500 uM GlcN6P” value is under 1e-05 s⁻¹.

With A12G A33G G41C G66A, the “self-cleavage kobs at 2500 uM GlcN6P” value is under 1e-05 s⁻¹.

U31G U56A G66U: the “self-cleavage kobs at 2500 uM GlcN6P” value was determined as 7.04e-05 ± 1.3e-05 s⁻¹.

As for G7A A12U U31G C70A, the “self-cleavage kobs at 2500 uM GlcN6P” value is under 1e-05 s⁻¹.

With U30G U49G U54A, the “self-cleavage kobs at 2500 uM GlcN6P” value was determined as 4.83e-05 ± 2.3e-05 s⁻¹.

As to G38U G40U A48U C68G, the “self-cleavage kobs at 2500 uM GlcN6P” value is under 1e-05 s⁻¹.

With G9U C10G C16U, the “self-cleavage kobs at 2500 uM GlcN6P” value was under 1e-05 s⁻¹.

As for U46C G60U C70U, the “self-cleavage kobs at 2500 uM GlcN6P” value was under 1e-05 s⁻¹.

Consider G7U U31G C61A C70A, for which the “self-cleavage kobs at 2500 uM GlcN6P” value was under 1e-05 s⁻¹.

With C11U A36G G40U G44A C61A C71U, the “self-cleavage kobs at 2500 uM GlcN6P” value was under 1e-05 s⁻¹.

As to C10G A12G U47G U54C C68U, the “self-cleavage kobs at 2500 uM GlcN6P” value is under 1e-05 s⁻¹.

Take A39C A42G A52U: the “self-cleavage kobs at 2500 uM GlcN6P” value was 6.4e-05 ± 1.5e-05 s⁻¹.

On to U46G U55C G66A, for which the “self-cleavage kobs at 2500 uM GlcN6P” value worked out at 0.00233 ± 0.00084 s⁻¹.

C16G U30G A39U: the “self-cleavage kobs at 2500 uM GlcN6P” value amounted to 4.31e-05 ± 2e-05 s⁻¹.

On to A6U G32U U57G, for which the “self-cleavage kobs at 2500 uM GlcN6P” value is under 1e-05 s⁻¹.

Turning to A12C C50G C70A, the “self-cleavage kobs at 2500 uM GlcN6P” value stood at 0.000246 ± 5.7e-05 s⁻¹.

For A12C U31C U56C, the “self-cleavage kobs at 2500 uM GlcN6P” value was 0.000204 ± 6.7e-05 s⁻¹.

On to A6G A36C U54G G62U, for which the “self-cleavage kobs at 2500 uM GlcN6P” value is under 1e-05 s⁻¹.

In the case of A6U G7A G60U G62U U65G, the “self-cleavage kobs at 2500 uM GlcN6P” value is under 1e-05 s⁻¹.

With U30A C58A C67U, the “self-cleavage kobs at 2500 uM GlcN6P” value was determined as 4.25e-05 ± 1.9e-05 s⁻¹.

With G32U G37C G43U, the “self-cleavage kobs at 2500 uM GlcN6P” value was under 1e-05 s⁻¹.

For the variant A33G A52G G63A, the “self-cleavage kobs at 2500 uM GlcN6P” value is under 1e-05 s⁻¹.

For C11U C16U A53C C68A C70G, the “self-cleavage kobs at 2500 uM GlcN6P” value is under 1e-05 s⁻¹.

Turning to A15G C34A G63A, the “self-cleavage kobs at 2500 uM GlcN6P” value was under 1e-05 s⁻¹.

On to C16G G40U G41U, for which the “self-cleavage kobs at 2500 uM GlcN6P” value is under 1e-05 s⁻¹.

As to U30C G35C U49A, the “self-cleavage kobs at 2500 uM GlcN6P” value was under 1e-05 s⁻¹.

For C34U C50U, the “self-cleavage kobs at 2500 uM GlcN6P” value is under 1e-05 s⁻¹.

A12G U54A C68G: the “self-cleavage kobs at 2500 uM GlcN6P” value turned out to be 5.86e-05 ± 1e-05 s⁻¹.

Variants of B1 are the subject of a further data set. The data set can be described thus: self-cleavage kobs at 10000 uM GlcN6P; higher = faster cleavage; RNA array. The settings on record: with glucosamine-6-phosphate. A digest of the protocol: as §1
With A14U C34A A48G C68G C71A, the “self-cleavage kobs at 10000 uM GlcN6P” value worked out at 0.000226 ± 7.7e-05 s⁻¹.

Consider A15C G66U C67G, for which the “self-cleavage kobs at 10000 uM GlcN6P” value stood at 0.000165 ± 4.9e-05 s⁻¹.

U30A U47C: the “self-cleavage kobs at 10000 uM GlcN6P” value was found to be 0.000396 ± 9.1e-05 s⁻¹.

Take C10U G51U G60U: the “self-cleavage kobs at 10000 uM GlcN6P” value was under 1e-05 s⁻¹.

With A15C A36C G59A U65A, the “self-cleavage kobs at 10000 uM GlcN6P” value is under 1e-05 s⁻¹.

Turning to U46G U55C G66A, the “self-cleavage kobs at 10000 uM GlcN6P” value came out at 0.00269 ± 0.00067 s⁻¹.

Take C16G U30G A39U: the “self-cleavage kobs at 10000 uM GlcN6P” value amounted to 0.000103 ± 2.8e-05 s⁻¹.

In the case of C11U C16U A53C C68A C70G, the “self-cleavage kobs at 10000 uM GlcN6P” value was under 1e-05 s⁻¹.
